Data taken from paper PMC6098011, “Insights into degradation mechanism of N-end rule substrates by p62/SQSTM1 autophagy adapter” (Nature Communications, 2018).
Where a chain is given by its changes, count along the chain named. Primed or numbered codes have the meaning given here. No end group written: not given here. FITC′ = fluorescein isothiocyanate label

Legend:
[1] = target: T1, R-BiP peptide (REEEDK–FITC); experiment: fluorescence polarisation; FITC-labeled peptide 100 nM, p62 construct titrated 400 nM to 3 mM; 50 mM Tris pH 8.0, 100 mM NaCl, 1 mM DTT; 384-well; settings: both partners purified
T1 construct: Arg attached to the new N-terminus of cleaved BiP (N-terminal arginylation, R*); BiP/GRP78 from E19 (E19b-E20b-E21b-D22b printed); also called FITC-labeled R-BiP peptide; FITC-labeled R-BiP/GRP78 peptide
T1 peptide: REEEDK-{FITC′}

[2] = target: the molecule itself; experiment: SEC-MALS; 50 mM Tris pH 8.0, 100 mM NaCl, 1 mM TCEP; 1-3 mg/ml injected; Superdex 200 Increase or Superose 6 Increase
[3] = target: the molecule itself; experiment: SEC-MALS; physiological pH 7.4; buffer not stated
[4] = target: the molecule itself; experiment: SEC-MALS; 50 mM sodium acetate pH 4.5, 100 mM NaCl, 1 mM TCEP

B1: Flag-ZZ (ZZ-domain of p62 with the flag-tag) (domain or fragment)
chain: not shown
Kd [1]: > 800 µM

B2: MBP-fused PB1-ZZ of p62 (residues 1-181) wild type (domain or fragment)
chain: not shown
notes: p62/SQSTM1, human, PB1-ZZ residues 1-181; Oligomeric state depends on pH (hexameric or higher at pH 8.0, polymer at pH 6.0, about a trimer at pH 4.5); also called MBP-PB1-ZZ WT; PB1-ZZ WT
stoichiometry N [2]: ≥ 6
stoichiometry N [3]: ≥ 10
stoichiometry N [4]: ~3

B3: MBP-PB1-ZZ D69A (domain or fragment)
chain: not shown
notes: p62/SQSTM1, human, PB1-ZZ residues 1-181; also called monomeric PB1-ZZ mutant
fold higher affinity of PB1-ZZ WT than of this mutant [1]: > 10 fold

B4: MBP-PB1-ZZ D129N (domain or fragment, human, UniProt Q13501 1-181, looked up)
chain: MASLTVKAYLLGKEDAAREIRRFSFCCSPEPEAEAEAAAGPGPCERLLSRVAALFPALRPGGFQAHYRDEDGDLVAFSSDEELTMAMSYVKDDIFRIYIKEKKECRRDHRPPCAQEAPRNMVHPNVICNGCNGPVVGTRYKCSVCPDYDLCSVCEGKGLHRGHTKLAFPSPFGHLSEGFSH
notes: p62/SQSTM1, human, PB1-ZZ residues 1-181
fold reduction of affinity against WT [1]: ~30 fold

B5: MBP-PB1-ZZ D147R (domain or fragment, human, UniProt Q13501 1-181, looked up)
chain: B4 chain with N129D, D147R
notes: as for B4
fold reduction of affinity against WT [1]: ~30 fold

B6: MBP-PB1-ZZ D149R (domain or fragment, human, UniProt Q13501 1-181, looked up)
chain: B4 chain with N129D, D149R
notes: as for B4
fold reduction of affinity against WT [1]: ~30 fold

B7: MBP-PB1-ZZ K7A (domain or fragment)
chain: not shown
notes: as for B3
fold higher affinity of PB1-ZZ WT than of this mutant [1]: > 10 fold

B8: MBP-PB1-ZZ N132L (domain or fragment)
chain: not shown
notes: as for B4
fold reduction of affinity against WT [1]: ~30 fold
